Laboratory results: article PMC11822739
Several values for one entry are separate records, joined by “and”; a condition that tells them apart may be missing. Equal values may be shown once. Read-outs that look alike come from different tables or passages of the source.

Key:
[1] = target: bacteriophage Qβ virus-like particles (bacteriophage Qβ); experiment: SEC-MALS; SEC-UV-MALS-RI; 7.8 x 300 mm 1000 Å 3 μm column; 20 mM phosphate, 276 mM NaCl, 5.4 mM KCl, pH 7.4 (2x dPBS); flow rates 0.29 and 1.15 mL/min; 20 μL of 2 mg/mL Qβ, 14.4 μL of 0.67 mg/mL HBV VLPs with residual CP149 dimer; dn/dc 0.185 mL/mg
[2] = target: HBV truncated core protein CP149 dimer (hepatitis B virus); experiment: SEC + native MS
[3] = target: HBV truncated core protein CP149 dimer (hepatitis B virus); experiment: SEC-MALS; SEC-UV-MALS-RI; 7.8 x 300 mm 1000 Å 3 μm column; 20 mM phosphate, 276 mM NaCl, 5.4 mM KCl, pH 7.4 (2x dPBS); flow rates 0.29 and 1.15 mL/min; 20 μL of 2 mg/mL Qβ, 14.4 μL of 0.67 mg/mL HBV VLPs with residual CP149 dimer; dn/dc 0.185 mL/mg
[4] = target: bovine thyroglobulin (bovine) (UniProt P01267); experiment: SEC + native MS
[5] = target: bovine thyroglobulin (bovine) (UniProt P01267); experiment: SEC + native MS; remark: listed apart in the source

Substance: bacteriophage Qβ virus-like particles (complex)
- stoichiometry N (x the molar mass of peak 3) [1]: 4 and 2

Substance: HBV truncated core protein CP149 dimer (domain or fragment)
- stoichiometry N [2]: 120 CP dimers and 90 CP dimers
- stoichiometry N [3]: 120 CP dimers and 90 CP dimers

Substance: bovine thyroglobulin, P01267 20-2769
- stoichiometry N [4]: 4 and 3
- stoichiometry N [5]: 2
